{"source": "paper PMC5469345", "about": "“High Sensitivity Determination of TNF-α for Early Diagnosis of Neonatal Infections with a Novel and Reusable Electrochemical Sensor”", "biological_target": "TNF-α (UniProt P01375 77-233)", "sequence (P01375 77-233)": "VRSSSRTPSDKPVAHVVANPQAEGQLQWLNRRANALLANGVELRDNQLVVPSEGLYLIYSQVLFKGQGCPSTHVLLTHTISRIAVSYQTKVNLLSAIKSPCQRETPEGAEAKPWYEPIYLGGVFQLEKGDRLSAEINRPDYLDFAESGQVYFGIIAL", "assay": "electrochemical sensor (CV/EIS/DPV), displacement of aptamer from capture probe; aptamer pre-hybridized to capture probe T1 on gold electrode; 0.01 M PBS, 37 °C; TNF-α incubation in 0.01 M PBS pH 7.4, 37 °C, 2 h (1 h optimal); binding buffer listed as 10 mM Tris-HCl pH 7.4, 10 mM KCl, 10 mM MgCl2; DPV in 10x PBS", "settings": "protein: commercial; chain copies: 3; single strand; on the sensor pre-hybridized to thiolated capture probe T1 (S1), from which TNF-α displaces it"}
{"binder": "TTTTTTTTTTTTTTTTGGTGGATGGCGCAGTCGGCGACAA (ssDNA)", "note": "[TNF-α aptamer (T2)]", "values": [{"measurement": "binding result", "result": "binds"}]}
